Assay results taken from PMC11417369, “DNA sequence and chromatin differentiate sequence-specific transcription factor binding in the human malaria parasite Plasmodium falciparum”.

T1: SIP2 D1 (Plasmodium falciparum, UniProt C6KSN9 177-235)
T1 sequence: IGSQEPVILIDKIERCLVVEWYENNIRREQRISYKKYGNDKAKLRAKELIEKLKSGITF

T2: HDP1 homeodomain-like (Plasmodium falciparum, UniProt Q8IKH4 2990-3078)
T2 sequence: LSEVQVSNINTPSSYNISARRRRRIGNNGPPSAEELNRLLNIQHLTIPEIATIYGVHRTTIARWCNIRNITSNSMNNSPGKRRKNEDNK

B1: GTGCAC_site10622 (dsDNA)
DNA 1: TATTATTCAAAATTTGTGCACAAAATTAAAGGAACA
DNA 2: TGTTCCTTTAATTTTGTGCACAAATTTTGAATAATA
B2: GTGCAC_negctrl_site428 (dsDNA)
DNA 1: AATATATGTATATATTTTTTTTTTTCCCTTACAAAT
DNA 2: ATTTGTAAGGGAAAAAAAAAAATATATACATATATT
B3: GTGCAC_site10721 (dsDNA)
DNA 1: ATATTATATCTAATCGTGCACAACTGTACATTTGTC
DNA 2: GACAAATGTACAGTTGTGCACGATTAGATATAATAT
B4: GTGCAC_negctrl_site503 (dsDNA)
DNA 1: AAACAAAAGTAGAAGGTAGAGTATTTTATATTTAAA
DNA 2: TTTAAATATAAAATACTCTACCTTCTACTTTTGTTT
B5: GTGCAC_site9953 (dsDNA)
DNA 1: ATATATCTTTATATAGTGCATTAAATATGTTGTAAT
DNA 2: ATTACAACATATTTAATGCACTATATAAAGATATAT
B6: GTGCAC_site9510 (dsDNA)
DNA 1: TGTTTATTTATTTGTGTGCACTCAGATTATATTATA
DNA 2: TATAATATAATCTGAGTGCACACAAATAAATAAACA
B7: GTGCAC_negctrl_site636 (dsDNA)
DNA 1: TTTTGTTGAAAAAAAAAAAAAAAATTAAATTAAATT
DNA 2: AATTTAATTTAATTTTTTTTTTTTTTTTCAACAAAA
B8: GTGCAC_site10686 (dsDNA)
DNA 1: TATCCATTTCTTTATGTGCACATTAAATATATTTGT
DNA 2: ACAAATATATTTAATGTGCACATAAAGAAATGGATA
B9: GTGCAC_negctrl_site402 (dsDNA)
DNA 1: AAAAAAAAAATACAACAAAGTTAAATAAATAAATAA
DNA 2: TTATTTATTTATTTAACTTTGTTGTATTTTTTTTTT
B10: GTGCAC_negctrl_site266 (dsDNA)
DNA 1: AATCAATATAAATAAAATTTTTAATTTTAACCCTAA
DNA 2: TTAGGGTTAAAATTAAAAATTTTATTTATATTGATT
B11: GTGCAC_negctrl_site521 (dsDNA)
DNA 1: AGTGGAATGTATGATTTTCATTCCTTAAAATTTTAA
DNA 2: TTAAAATTTTAAGGAATGAAAATCATACATTCCACT
B12: GTGCAC_negctrl_site533 (dsDNA)
DNA 1: AAATTAATAAATATTTTTATAAATTATAATATTAAT
DNA 2: ATTAATATTATAATTTATAAAAATATTTATTAATTT
B13: GTGCAC_site9580 (dsDNA)
DNA 1: ATTTTTATTTTTTTTGTGCACATTTTCATTTTCTAT
DNA 2: ATAGAAAATGAAAATGTGCACAAAAAAAATAAAAAT
B14: GTGCAC_negctrl_site36 (dsDNA)
DNA 1: TTATGTGATAAAAAAAAAATACAACAAAGTTAAATA
DNA 2: TATTTAACTTTGTTGTATTTTTTTTTTATCACATAA
B15: GTGCAC_site10365 (dsDNA)
DNA 1: TTTCAATTTATCAGTGTGCACAAAAATAAAATAAAA
DNA 2: TTTTATTTTATTTTTGTGCACACTGATAAATTGAAA
B16: GTGCAC_negctrl_site348 (dsDNA)
DNA 1: AAAATAAAAGAATAAAAATATGAAACTTTTTTAAAA
DNA 2: TTTTAAAAAAGTTTCATATTTTTATTCTTTTATTTT
B17: GTGCAC_site10129 (dsDNA)
DNA 1: GCATATGTATATAATGTGCACATGGATTATATAAAA
DNA 2: TTTTATATAATCCATGTGCACATTATATACATATGC
B18: GTGCAC_negctrl_site626 (dsDNA)
DNA 1: AAAATATAAATATATTTGAACATGGATCAAATGTAA
DNA 2: TTACATTTGATCCATGTTCAAATATATTTATATTTT
B19: GTGCAC_negctrl_site259 (dsDNA)
DNA 1: TATTTACAACAAATTTAATTATTTTTAACTTATAAA
DNA 2: TTTATAAGTTAAAAATAATTAAATTTGTTGTAAATA
B20: GTGCAC_site10773 (dsDNA)
DNA 1: TATATATATATAATTGTGCACATAATTTTAAACCAA
DNA 2: TTGGTTTAAAATTATGTGCACAATTATATATATATA
B21: GTGCAC_negctrl_site310 (dsDNA)
DNA 1: TTACTAAAAATTATTAATAAATAATAATTATAAATT
DNA 2: AATTTATAATTATTATTTATTAATAATTTTTAGTAA
B22: GTGCAC_site10155 (dsDNA)
DNA 1: TTGATAAAATCACTGGTGCATGTAGATATATAATAT
DNA 2: ATATTATATATCTACATGCACCAGTGATTTTATCAA
B23: GTGCAC_site10117 (dsDNA)
DNA 1: AATAACTATATATGTGTGCACAAAAATTTGACATAA
DNA 2: TTATGTCAAATTTTTGTGCACACATATATAGTTATT
B24: GTGCAC_site9776 (dsDNA)
DNA 1: TTTATATATTTTGTCGTGCACATTTGGAAAATTACA
DNA 2: TGTAATTTTCCAAATGTGCACGACAAAATATATAAA
B25: GTGCAC_negctrl_site735 (dsDNA)
DNA 1: AAAATTAATTATTACAAAAATGAAAAGACATATTTT
DNA 2: AAAATATGTCTTTTCATTTTTGTAATAATTAATTTT
B26: GTGCAC_site9562 (dsDNA)
DNA 1: ACATTTAAATAATATGTGCACAGCTATATTTTCTTT
DNA 2: AAAGAAAATATAGCTGTGCACATATTATTTAAATGT
B27: GTGCAC_negctrl_site275 (dsDNA)
DNA 1: ATATTTTATCATGTTTAATATTTATGTGGACATAAA
DNA 2: TTTATGTCCACATAAATATTAAACATGATAAAATAT
B28: GTGCAC_negctrl_site507 (dsDNA)
DNA 1: ATGTTGTTCATAAATATATTATTTTTAAATGTACAA
DNA 2: TTGTACATTTAAAAATAATATATTTATGAACAACAT
B29: GTGCAC_negctrl_site486 (dsDNA)
DNA 1: TATTTATTATGATACTCATATTATTCTATGATTAAA
DNA 2: TTTAATCATAGAATAATATGAGTATCATAATAAATA
B30: GTGCAC_negctrl_site354 (dsDNA)
DNA 1: ATAAATTGAAGTAAATTTGACCTTTTTTTTTTTTTT
DNA 2: AAAAAAAAAAAAAAGGTCAAATTTACTTCAATTTAT
B31: GTGCAC_negctrl_site465 (dsDNA)
DNA 1: AAAAAATGTAAATATAAACAACCAAAGGGGGTATAC
DNA 2: GTATACCCCCTTTGGTTGTTTATATTTACATTTTTT
B32: GTGCAC_negctrl_site358 (dsDNA)
DNA 1: TACTGTATTATAATTATGATTGACGAAATTAAAAAT
DNA 2: ATTTTTAATTTCGTCAATCATAATTATAATACAGTA
B33: GTGCAC_negctrl_site213 (dsDNA)
DNA 1: TTTAATCAATGATTTAATGAAAAAAGCAAAAAAAAA
DNA 2: TTTTTTTTTGCTTTTTTCATTAAATCATTGATTAAA
B34: GTGCAC_negctrl_site532 (dsDNA)
DNA 1: AATAATTTTTAAATATAAACATTTTTTTTTTTTTTT
DNA 2: AAAAAAAAAAAAAAATGTTTATATTTAAAAATTATT
B35: GTGCAC_negctrl_site362 (dsDNA)
DNA 1: TATTATATCTTATATGTATATTCCCACAAATTATAT
DNA 2: ATATAATTTGTGGGAATATACATATAAGATATAATA
B36: GTGCAC_negctrl_site551 (dsDNA)
DNA 1: AAAAGGAATATAATCATTCAAAAATATAATATATAT
DNA 2: ATATATATTATATTTTTGAATGATTATATTCCTTTT
B37: GTGCAC_negctrl_site655 (dsDNA)
DNA 1: TCTTTTAACAAATAATAAGCTAATTTATATTATTAT
DNA 2: ATAATAATATAAATTAGCTTATTATTTGTTAAAAGA
B38: GTGCAC_negctrl_site640 (dsDNA)
DNA 1: AGAAATATGTTGAAGCATTTATAATGTAGATATAAG
DNA 2: CTTATATCTACATTATAAATGCTTCAACATATTTCT
B39: GTGCAC_negctrl_site448 (dsDNA)
DNA 1: TCTTTTTAAATTACTATAATACATTCATAAATTATA
DNA 2: TATAATTTATGAATGTATTATAGTAATTTAAAAAGA

What follows are binders tested against T1, SIP2 D1 (assay: gcPBM; about 25 ug protein; PBS, 1% milk, 0.2 mg/ml BSA, salmon testes DNA, 0.03% Triton X-100). Details: tags: N-terminal GST (pGEX-4T-1), kept; label: surface-attached array probe.

| Binder | binding signal |
| --- | --- |
| B1 | 8.92 ln median PBM intensity, better of two orientations |
| B2 | 6.66 ln median PBM intensity, better of two orientations |
| B3 | 9.08 ln median PBM intensity, better of two orientations |
| B4 | 6.67 ln median PBM intensity, better of two orientations |
| B5 | 8.47 ln median PBM intensity, better of two orientations |
| B6 | 10.1 ln median PBM intensity, better of two orientations |
| B7 | 6.63 ln median PBM intensity, better of two orientations |
| B8 | 8.89 ln median PBM intensity, better of two orientations |
| B9 | 6.65 ln median PBM intensity, better of two orientations |
| B10 | 6.64 ln median PBM intensity, better of two orientations |
| B11 | 6.55 ln median PBM intensity, better of two orientations |
| B12 | 6.52 ln median PBM intensity, better of two orientations |
| B13 | 9.53 ln median PBM intensity, better of two orientations |
| B14 | 6.76 ln median PBM intensity, better of two orientations |
| B15 | 10.1 ln median PBM intensity, better of two orientations |
| B16 | 6.41 ln median PBM intensity, better of two orientations |
| B17 | 9.12 ln median PBM intensity, better of two orientations |
| B18 | 6.71 ln median PBM intensity, better of two orientations |
| B19 | 6.7 ln median PBM intensity, better of two orientations |
| B20 | 9.89 ln median PBM intensity, better of two orientations |
| B21 | 6.58 ln median PBM intensity, better of two orientations |
| B22 | 9.7 ln median PBM intensity, better of two orientations |
| B23 | 9.72 ln median PBM intensity, better of two orientations |
| B24 | 9.81 ln median PBM intensity, better of two orientations |
| B25 | 6.68 ln median PBM intensity, better of two orientations |
| B26 | 9.19 ln median PBM intensity, better of two orientations |

Each binder was assayed against T2, HDP1 homeodomain-like in the same assay as above. Details: tags: N-terminal GST (pGEX-4T-1), kept; chain copies: 2; label: surface-attached array probe.

| Binder | binding signal |
| --- | --- |
| B1 | 11.1 ln median PBM intensity, better of two orientations |
| B2 | 6.17 ln median PBM intensity, better of two orientations |
| B27 | 6.34 ln median PBM intensity, better of two orientations |
| B3 | 9.73 ln median PBM intensity, better of two orientations |
| B4 | 6.07 ln median PBM intensity, better of two orientations |
| B5 | 8.99 ln median PBM intensity, better of two orientations |
| B6 | 11.3 ln median PBM intensity, better of two orientations |
| B28 | 6.37 ln median PBM intensity, better of two orientations |
| B7 | 5.87 ln median PBM intensity, better of two orientations |
| B29 | 6.33 ln median PBM intensity, better of two orientations |
| B30 | 6.29 ln median PBM intensity, better of two orientations |
| B8 | 11.4 ln median PBM intensity, better of two orientations |
| B9 | 6.34 ln median PBM intensity, better of two orientations |
| B10 | 6.24 ln median PBM intensity, better of two orientations |
| B11 | 5.94 ln median PBM intensity, better of two orientations |
| B12 | 5.92 ln median PBM intensity, better of two orientations |
| B31 | 6.37 ln median PBM intensity, better of two orientations |
| B13 | 11.3 ln median PBM intensity, better of two orientations |
| B32 | 6.33 ln median PBM intensity, better of two orientations |
| B14 | 6.32 ln median PBM intensity, better of two orientations |

| Binder | binding signal |
| --- | --- |
| B15 | 11.4 ln median PBM intensity, better of two orientations |
| B16 | 5.89 ln median PBM intensity, better of two orientations |
| B33 | 6.34 ln median PBM intensity, better of two orientations |
| B34 | 6.29 ln median PBM intensity, better of two orientations |
| B17 | 11.2 ln median PBM intensity, better of two orientations |
| B35 | 6.31 ln median PBM intensity, better of two orientations |
| B18 | 6.08 ln median PBM intensity, better of two orientations |
| B19 | 6.18 ln median PBM intensity, better of two orientations |
| B20 | 11.1 ln median PBM intensity, better of two orientations |
| B36 | 6.36 ln median PBM intensity, better of two orientations |
| B21 | 5.75 ln median PBM intensity, better of two orientations |
| B22 | 9.06 ln median PBM intensity, better of two orientations |
| B37 | 6.28 ln median PBM intensity, better of two orientations |
| B38 | 6.35 ln median PBM intensity, better of two orientations |
| B23 | 11.2 ln median PBM intensity, better of two orientations |
| B24 | 8.92 ln median PBM intensity, better of two orientations |
| B25 | 5.96 ln median PBM intensity, better of two orientations |
| B39 | 6.3 ln median PBM intensity, better of two orientations |
| B26 | 10.9 ln median PBM intensity, better of two orientations |
